Reference: paper PMC6165294

What was measured:
[1] = target: GST-fusion NaV1.1 IQ domain (amino acids 1909-1936) (human); test: pull-down; phosphorylation series (Figure 6, Table 3): GST-IQ on GS-4B beads as control, treated with CaMKIIT286D or with CIP, then CaM 0.07-7 uM; [Ca2+] 2 mM; two-sites Hill fit; apparent constants
[2] = target: GST-fusion NaV1.1 IQ domain dephosphorylated by CIP (human); test: as above
[3] = target: GST-fusion NaV1.1 IQ domain phosphorylated by CaMKII (human); test: as above
[4] = target: GST-fusion NaV1.1 IQ domain (amino acids 1909-1936) (human); test: pull-down; phosphorylation series (Figure 6, Table 3): GST-IQ on GS-4B beads as control, treated with CaMKIIT286D or with CIP, then CaM 0.07-7 uM; [Ca2+] 100 nM; two-sites Hill fit; apparent constants
[5] = target: GST-fusion NaV1.1 IQ domain dephosphorylated by CIP (human); test: as above
[6] = target: GST-fusion NaV1.1 IQ domain phosphorylated by CaMKII (human); test: as above
[7] = target: GST-fusion NaV1.1 IQ domain (amino acids 1909-1936) (human); test: pull-down; phosphorylation series (Figure 6, Table 3): GST-IQ on GS-4B beads as control, treated with CaMKIIT286D or with CIP, then CaM 0.07-7 uM; [Ca2+] 500 nM; two-sites Hill fit; apparent constants
[8] = target: GST-fusion NaV1.1 IQ domain dephosphorylated by CIP (human); test: as above
[9] = target: GST-fusion NaV1.1 IQ domain phosphorylated by CaMKII (human); test: as above
[10] = target: GST-fusion NaV1.1 IQ domain (amino acids 1909-1936) (human); test: pull-down; phosphorylation series (Figure 6, Table 3): GST-IQ on GS-4B beads as control, treated with CaMKIIT286D or with CIP, then CaM 0.07-7 uM; [Ca2+] ≈ free; two-sites Hill fit; apparent constants
[11] = target: GST-fusion NaV1.1 IQ domain dephosphorylated by CIP (human); test: as above
[12] = target: GST-fusion NaV1.1 IQ domain phosphorylated by CaMKII (human); test: as above
[13] = target: GST-fusion NaV1.1 IQ domain (amino acids 1909-1936) (human); test: pull-down; GST-fusion IQ or mutant (2-4 ug) immobilised on GS-4B; CaM or mutant 0.07-7.0 uM; [Ca2+] 2 mM; 150 mM NaCl, 50 mM Tris pH 8.0, 4 h at 4 C; Coomassie densitometry, one- or two-sites Hill fit; apparent constants
[14] = target: GST-fusion NaV1.1 IQ domain (amino acids 1909-1936) (human); test: pull-down; GST-fusion IQ or mutant (2-4 ug) immobilised on GS-4B; CaM or mutant 0.07-7.0 uM; [Ca2+] 100 nM; 150 mM NaCl, 50 mM Tris pH 8.0, 4 h at 4 C; Coomassie densitometry, one- or two-sites Hill fit; apparent constants
[15] = target: GST-fusion NaV1.1 IQ domain (amino acids 1909-1936) (human); test: pull-down; GST-fusion IQ or mutant (2-4 ug) immobilised on GS-4B; CaM or mutant 0.07-7.0 uM; [Ca2+] 500 nM; 150 mM NaCl, 50 mM Tris pH 8.0, 4 h at 4 C; Coomassie densitometry, one- or two-sites Hill fit; apparent constants
[16] = target: GST-fusion NaV1.1 IQ domain (amino acids 1909-1936) (human); test: pull-down; GST-fusion IQ or mutant (2-4 ug) immobilised on GS-4B; CaM or mutant 0.07-7.0 uM; [Ca2+] ≈ free; 150 mM NaCl, 50 mM Tris pH 8.0, 4 h at 4 C; Coomassie densitometry, one- or two-sites Hill fit; apparent constants

- Kd2 (site 2 of the two-sites fit) [1]: 1.1 µM
- Kd1 (site 1 of the two-sites fit) [2]: 0.0383 µM
- Kd2 (site 2 of the two-sites fit) [2]: 2.01 µM
- Kd1 (site 1 of the two-sites fit) [3]: 0.0473 µM
- Kd2 (site 2 of the two-sites fit) [3]: 1.95 µM
- Kd2 (site 2 of the two-sites fit) [4]: 3.09 µM
- Kd1 (site 1 of the two-sites fit) [5]: 0.0365 µM
- Kd2 (site 2 of the two-sites fit) [5]: 1.42 µM
- Kd1 (site 1 of the two-sites fit) [6]: 0.0251 µM
- Kd2 (site 2 of the two-sites fit) [6]: 3.03 µM
- Kd2 (site 2 of the two-sites fit) [7]: 5.04 µM
- Kd2 (site 2 of the two-sites fit) [8]: 3.95 µM
- Kd1 (site 1 of the two-sites fit) [9]: 0.013 µM
- Kd2 (site 2 of the two-sites fit) [9]: 8.17 µM
- Kd1 (site 1 of the two-sites fit) [10]: 0.0376 µM
- Kd2 (site 2 of the two-sites fit) [10]: 2.49 µM
- Kd1 (site 1 of the two-sites fit) [11]: 0.0371 µM
- Kd2 (site 2 of the two-sites fit) [11]: 2.03 µM
- Kd1 (site 1 of the two-sites fit) [12]: 0.0361 µM
- Kd2 (site 2 of the two-sites fit) [12]: 1.44 µM
- Kd1 (site 1 of the two-sites fit) [13]: 0.0682 µM
- Kd2 (site 2 of the two-sites fit) [13]: 0.559 µM
- Kd1 (site 1 of the two-sites fit) [14]: 0.063 µM
- Kd2 (site 2 of the two-sites fit) [14]: 2.91 µM
- Kd1 (site 1 of the two-sites fit) [15]: 0.0433 µM
- Kd2 (site 2 of the two-sites fit) [16]: 4.58 µM
Substance: calmodulin (CaM), human, wild type (from UniProt P0DP23 1-149) (natural protein)
